Experimental data taken from US20150299314A1 (TORAY INDUSTRIES, published 2015).

Experiments:
[1] = molecular target: T1, CAPRIN-1 protein expressed on the cell surface of human cancer cells (human, UniProt Q14444 2-709); experiment: cell-based or functional assay
T1 sequence (looked up): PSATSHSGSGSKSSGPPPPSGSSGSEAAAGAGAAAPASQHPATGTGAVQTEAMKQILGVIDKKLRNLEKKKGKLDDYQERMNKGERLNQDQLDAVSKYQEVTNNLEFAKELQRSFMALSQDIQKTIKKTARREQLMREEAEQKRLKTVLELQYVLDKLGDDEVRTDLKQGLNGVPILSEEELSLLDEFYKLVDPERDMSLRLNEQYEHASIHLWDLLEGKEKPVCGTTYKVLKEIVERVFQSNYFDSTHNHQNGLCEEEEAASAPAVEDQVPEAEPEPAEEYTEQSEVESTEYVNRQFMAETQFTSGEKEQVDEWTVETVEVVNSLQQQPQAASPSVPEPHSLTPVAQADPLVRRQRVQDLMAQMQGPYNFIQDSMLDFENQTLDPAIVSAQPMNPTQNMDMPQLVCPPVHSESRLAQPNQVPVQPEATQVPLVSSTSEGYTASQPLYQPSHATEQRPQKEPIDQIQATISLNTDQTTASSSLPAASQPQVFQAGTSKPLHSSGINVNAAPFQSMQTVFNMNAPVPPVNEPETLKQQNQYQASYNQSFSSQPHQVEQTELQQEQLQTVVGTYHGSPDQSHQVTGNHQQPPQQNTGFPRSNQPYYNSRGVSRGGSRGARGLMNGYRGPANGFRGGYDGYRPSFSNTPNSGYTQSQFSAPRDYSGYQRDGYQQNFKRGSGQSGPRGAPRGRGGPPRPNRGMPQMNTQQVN

[2] = molecular target: T1, CAPRIN-1 protein expressed on the cell …; experiment: flow cytometry, TGBC14TKB cells, culture supernatant, isotype control antibody as control
Description: Subsequently, a gallbladder cell line TGBC14TKB, which was confirmed to express a CAPRIN-1 gene, was investigated for whether or not a CAPRIN-1 protein is expressed on the surfaces of these cells. 1×10⁶ cells of TGBC14TKB were centrifuged with a 1.5-mL micro centrifugation tube. To the cells was added the culture supernatant (100 μL) containing any of anti-CAPRIN-1 mouse monoclonal antibodies #1 to #22 reacting to cancer cell surface produced in Example 4 and anti-CAPRIN-1 mouse-chicken chimeric antibodies #1 to #3 produced in the above (2), followed by being left to stand on ice for 1 hour. After washing with PBS, the cells were suspended in a FITC-labeled goat anti-mouse IgG antibody (manufactured by life technologies) diluted by 500-fold with PBS containing 0.1% FBS, followed by being left to stand on ice for 1 hour. After washing with PBS, the fluorescence intensity was measured with FACS Calibur available from Becton, Dickinson and Company. Separately, as a control, the same procedure as in above was performed using an iso-type control antibody, instead of the culture supernatants containing the anti-CAPRIN-1 mouse monoclonal antibodies #1 to #22 and the mouse-chicken chimeric antibodies #1 to #3. As a result, the fluorescence intensity in the cells to which any of the monoclonal antibodies #1 to #22 and the mouse-chicken chimeric antibodies #1 to #3 was added was 20% or more higher than that in the control in every case. Specifically, in the case of using mouse-chicken chimeric antibody #1, the fluorescence intensity was enhanced by 200% or more. […] The rate of increase in the fluorescence intensity is represented by the rate of increase in the mean fluorescence intensity (MFI value) in each cell and is calculated by the following calculation formula: […]

B1: human-mouse chimeric anti-CAPRIN-1 antibody #26 (antibody, human IgG1, kappa)
heavy: not shown
light: PASSSDVLMTQTPLSLPVRLGDQSSISCRSSQSIVHSNGNTYLEWYLQKPGQSPKLLIYKVSNRFSGVPDRFSGSGSGTDFTLKISRVEPEDLGVYYCFQGSHVPYTSEGDQAEIKLATVAAPSVFIFPPSDEQLKSGTASVVCLLNNFYPREAKVQWKVDNALQSGNSQESVTEQDSKDSTYSLSSTLTLSKADYEKHKVYACEVTHQGLSSPVTKSFNRGEC
ADCC activity on TGBC14TKB, method as in Example 12 [1]: ≥ 20%

B2: human-mouse chimeric anti-CAPRIN-1 antibody #29 (antibody, human IgG1, kappa)
heavy: not shown
light: GTCGDIVMSQSPSSLAVSAGEKVTMSCKSSQSLLNSRTRKNYLAWVQHKPGQSPRLLIYWASTRESGVPDRFTGSGSGTDFTLTISSVQAEDLAVYYCRQSYNLVTFGAGPSTVAAPSVFIFPPSDEQLKSGTASVVCLLNNFYPREAKVQWKVDNALQSGNSQESVTEQDSKDSTYSLSSTLTLSKADYEKHKVYACEVTHQGLSSPVTKSFNRGEC
ADCC activity on TGBC14TKB, method as in Example 12 [1]: ≥ 20%

B3: mouse-chicken chimeric antibody #2 (antibody, mouse IgG1, V domains shown)
VH: AVTLDESGGGLQTPGGGLSLVCKASGFTFSSFDMGWVRQAPGKGLEFVAQINDAGSRTWYATAVKGRATISRDNGQTTVRLQLNNLRAEDTGTYYCTRGSGYVGAGAIDAWGHGTEVIVS
VL: AALTQPSSVSANPGETVKITCSGGSGYYGWYQQQKSPGSAPVTVIYQNDKRPSDIPSRFSGSGSGSTNTLTITGVQAEDEAVYFCGRYDSTDSGIFGAGTTLTVL
notes: also called anti-CAPRIN-1 mouse-chicken chimeric antibody #2
rate of increase in mean fluorescence intensity over control [2]: ≥ 20%

B4: human-mouse chimeric anti-CAPRIN-1 antibody #34 (antibody, human IgG1, kappa, V domains shown)
VH: GAELVRPGTSVKVSCKASVYAFTNYLIEWVKQRPGQGLEWIGVINPKSGGTKYNEKFRGKATLTADKSSSTAYMQLSSLTSGDSAVYFCAITGTDYWGQGTTLTVSS
VL: QGTRCDIQMTQTTSSLSASLGDRVTISCSASQGINNYLNWYQQKPDGTVKLLIYYTSSLRSGVPSRFSGSGSGTDYSLTISNLEPEDVATYYCQQYSKLPRTFGGGTKLEIKR
ADCC activity (cytotoxicity, 51Cr release) on TGBC14TKB, antibody 5 ug/mL, human NK cells [1]: ≥ 20%

B5: human-mouse chimeric anti-CAPRIN-1 antibody #36 (antibody, human IgG1, kappa)
heavy: not shown
light: QDELSNPVTSGESVSISCRSSKSLLYKDGKTYLNWFLQRPGQSPQLLIYLMSTRASGVSDRFSGSGSGTDFTLEISRVKAEDVGVYYCQQLVEDPLTFGAGTKLELKRTVAAPSVFIFPPSDEQLKSGTASVVCLLNNFYPREAKVQWKVDNALQSGNSQESVTEQDSKDSTYSLSSTLTLSKADYEKHKVYACEVTHQGLSSPVTKSFNRGEC
ADCC activity (cytotoxicity, 51Cr release) on TGBC14TKB, antibody 5 ug/mL, human NK cells [1]: ≥ 20%

B6: human-mouse chimeric anti-CAPRIN-1 antibody #25 (antibody, human IgG1, kappa, V domains shown)
VH: GPGLVQPSQSLSITCTVSGFSLTTYDLHWVRQSPGKGLEWLGVIWSGGSTDYNAAFISRLSISKDNSKSQVFFKMNSLQANDTAIYYCARNYGYSAWFAYWGQGTLVTVSA
VL: DVLMTQTPLSLPVSLGDQASISCRSSQSIVHSNGNTYLEWYLQKPGQSPKLLIYKVSNRFSGVPDRFSGSGSGTDFTLKISRVEAEDLGVYYCFQGSHVPLTFGAGTKLELKR
ADCC activity on TGBC14TKB, method as in Example 12 [1]: ≥ 20%

B7: human-mouse chimeric anti-CAPRIN-1 antibody #27 (antibody, human IgG1, kappa, V domains shown)
VH: GGGLVQPGGSMRLSCVASGFTFSNSWFNWVRQSPEKGLEWVAEIRLTSDNYAIYYAESVKGRFTISRDDSKSSVYLQMNNLRAEDTGIYYCTRPETARATFAYWGQGTTVTVSS
VL: DVLMTQTPLSLPVSLGDQASISCRSSQSIVHSNGNTYLEWYLQKPGQSPKVLIYKVFNRFSGVPDRFSGSGSGTDFTLKISRVEAEDLGVYYCFQGSHVPRTFGGGTKLNQTG
ADCC activity on TGBC14TKB, method as in Example 12 [1]: ≥ 20%

B8: human-chicken chimeric antibody #2 (antibody, human IgG1, kappa, V domains shown)
VH: AVTLDESGGGLQTPGGGLSLVCKASGFTFSSFDMGWVRQAPGKGLEFVAQINDAGSRTWYATAVKGRATISRDNGQTTVRLQLNNLRAEDTGTYYCTRGSGYVGAGAIDAWGHGTEVIVSA
VL: AALTQPSSVSANPGETVKITCSGGSGYYGWYQQQKSPGSAPVTVIYQNDKRPSDIPSRFSGSGSGSTNTLTITGVQAEDEAVYFCGRYDSTDSGIFGAGTTLTVLT
cytotoxicity (ADCC, 51Cr release) on TGBC14TKB, human NK cells [1]: ≥ 15%

B9: human-mouse chimeric anti-CAPRIN-1 antibody #23 (antibody, human IgG1, kappa, V domains shown)
VH: GGGLVKPGGSLKLSCAASGFTFSSYGMSWVRQTPEKRLEWVATISSGGSYTYYPDSVKGRFTISRDNAKNTLYLQMSSLRSEDTAMYYCASLASYYFDYWGQGTTLTVSS
VL: GARCDVQMIQSPSSLSASLGDIVTMTCQASQGTSINLNWFQQKPGKAPKLLIYGASSLEDGVPSRFSGSCFGTDFTLTISSLEDEDMATYFCLQHSYLPPLTFGAGTKLELKR
ADCC activity on TGBC14TKB, method as in Example 12 [1]: ≥ 20%

B10: human-mouse chimeric anti-CAPRIN-1 antibody #24 (antibody, human IgG1, kappa, V domains shown)
VH: GGGLVKPGGSLKLSCAASGFTFSSYGMSWVRQTPEKRLEWVATISSGGSYTYYPDSVKGRFTISRDNAKNTLYLQMSSLRSEDTAMYYCASLASYYFDYWGQGTTLTVSS
VL: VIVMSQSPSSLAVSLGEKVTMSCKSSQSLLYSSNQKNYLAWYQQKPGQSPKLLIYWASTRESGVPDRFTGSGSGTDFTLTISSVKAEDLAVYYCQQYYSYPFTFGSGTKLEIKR
ADCC activity on TGBC14TKB, method as in Example 12 [1]: ≥ 20%

B11: mouse monoclonal antibody #12 (antibody, V domains shown)
VH: EVQLHQFGAELVKPGASVKISCKASGYTFTDYNMDWVKQSHGKSLEWIGDINPNYDSTSYNQKFKGKATLTVDKSSSTAYMELRSLTSEDTAVYYCARSRSYDYEGFAYWGQGTLVTVSA
VL: DIQMTQSPASLSASVGETVTITCRASGNIHNYLAWYQQKQGKSPQLLVYNAKTLADGVPSRFSGSGSGTQYSLKINSLQPEDFGSYYCQHFWSTLTFGAGTKLELKR
notes: mouse hybridoma antibody; also called anti-CAPRIN-1 mouse monoclonal antibody #12; anti-CAPRIN-1 monoclonal antibody #12
cytotoxicity (ADCC, 51Cr release) on TGBC14TKB, human NK cells [1]: ≥ 15%
rate of increase in mean fluorescence intensity over control [2]: ≥ 20%

B12: mouse monoclonal antibody #8 (antibody, V domains shown)
VH: GGGLVKPGGSLKLSCAASGFAFSSYDMSWIRQTPEKRLEWVAYISSGAGSTYYPDTVKGRFTVSRDNAKNTLYLQMSSLKSEDTAMYYCARHFYRFDYWGQGTTVTVSS
VL: SIVMTQTPKFLLVSAGDRITITCKASQSVSNDVAWYQQKPGQSPKLLIYYASNRYTGVPDRFTGSGYGTDFTFTISTVQAEDLAVYFCQQDDRFPLTFGAGPS
notes: mouse hybridoma antibody; also called anti-CAPRIN-1 mouse monoclonal antibody #8; anti-CAPRIN-1 monoclonal antibody #8
cytotoxicity (ADCC, 51Cr release) on TGBC14TKB, human NK cells [1]: ≥ 15%
rate of increase in mean fluorescence intensity over control [2]: ≥ 20%

B13: mouse-chicken chimeric antibody #3 (antibody, mouse IgG1, V domains shown)
VH: AVTLDESGGGLQTPGGALSLVCKASGFTFSGYDMLWVRQAPGKGLEWVAGIGSTGGGTDYGAAVKGRATISRDNGQSTVRLQLNNLRAEDTATYYCAKVAGGCNSGYCRDSPGSIDAWGHGTEVIVS
VL: AVTQQPASVSANPGETVKITCSGGGSRNYYGWYQQKSPGSVPVTVIYYDDQRPSNIPSRFSGALSGSTSTLTITGVQADDEAVYFCGSADSNTYEGSFGAGTTLTVL
notes: also called anti-CAPRIN-1 mouse-chicken chimeric antibody #3
rate of increase in mean fluorescence intensity over control [2]: ≥ 20%

B14: human-mouse chimeric anti-CAPRIN-1 antibody #28 (antibody, human IgG1, kappa, V domains shown)
VH: GPDLVKPGASVKISCKASGYSFTAYYMHWVKQSHGKSLEWIGRVNPNNGGTTYNQKFKGKAILTVDKSSSTAYMELRSLTFEDSAVYYCARRIYYGYFDYWGQGTTVTVSS
VL: AFFAVSLGQRATISCKASQSVDYDGDSYMNWYQQKPGQPPKLLIYVASNLESGVPARFSGSGSGTDFTLNIHPVEEEDAATYYCQQSNEDPYTFGGGTKLEIKQ
ADCC activity on TGBC14TKB, method as in Example 12 [1]: ≥ 20%

B15: human-mouse chimeric anti-CAPRIN-1 antibody #30 (antibody)
heavy: not shown
light: DVQITQSPSYLAASPGETITINCRASKSISKYLAWYQEKPGKTNKLLIYSGSTLQSGIPSRFSGSGSGTDFTLTISSLEPEDFAMYYCQQHNEYPYTFGGGTKLEIKRTVAAPSVFIFPPSDEQLKSGTASVVCLLNNFYPREAKVQWKVDNALQSGNSQESVTEQDSKDSTYSLSSTLTLSKADYEKHKVYACEVTHQGLSSPVTKSFNRGEC
ADCC activity (cytotoxicity, 51Cr release) on TGBC14TKB, antibody 5 ug/mL, human NK cells [1]: ≥ 20%

B16: human-mouse chimeric anti-CAPRIN-1 antibody #31 (antibody, human IgG1, kappa)
heavy: not shown
light: DVQITQSPSYLAASPGETITINCRASKSISKYLAWYQEKPGKTNKLLIYSGSTLQSGIPSRFSGSGSGTDFTLTISSLEPEDFAMYYCQQHNEYPWTFGGGTKLEIKRTVAAPSVFIFPPSDEQLKSGTASVVCLLNNFYPREAKVQWKVDNALQSGNSQESVTEQDSKDSTYSLSSTLTLSKADYEKHKVYACEVTHQGLSSPVTKSFNRGEC
ADCC activity (cytotoxicity, 51Cr release) on TGBC14TKB, antibody 5 ug/mL, human NK cells [1]: ≥ 20%
